These results are taken from patent publication US20160297851A1, “BROAD SPECTRUM […]” (priority 2012, published 2016).

In assay [1] the target is E. coli SPase with each of the other 19 amino acids at residue 84, in mutant strains of E. coli. The assay is described as follows: cell-based or functional assay.
Assay [2] concerns the target P. aeruginosa PAO1 SPase (LepB) P84L, in the bacteria (P. aeruginosa), Q9I5G7. As to the kind of experiment: cell-based or functional assay.

B1: arylomycin C16 (peptide)
peptide: SAGXAY
modifications: here or on the partner: C16 fatty acyl (palmitoyl) tail on the N-terminus of N-methyl-D-Ser2; D-Ala3; N-methyl-4-hydroxyphenylglycine (MeHpg) at 5, written X; biaryl bridge between MeHpg5 and Tyr7 (macrocycle MeHpg5-Ala6-Tyr7); free C-terminal carboxyl; the filing counts the lipid tail as position 1
For B1, the MIC in assay [1] is less than 16 µg/mL; in assay [2], 8 µg/mL.
